Results reported in patent US20210300999A1.

Assays:
[1] = molecular target: recombinant receptor binding domain (RBD) of SARS-CoV-2 spike protein, residues 319-528, deglycosylated (SARS-CoV-2) (UniProt P0DTC2); test: crystal structure RBD/COV2-2196/COV2-2130
[2] = molecular target: recombinant receptor binding domain (RBD) of SARS-CoV-2 spike protein, residues 319-528, deglycosylated (SARS-CoV-2) (UniProt P0DTC2); test: crystal structure RBD/COV2-2196
[3] = molecular target: SARS-CoV S2Pecto (SARS-CoV) (UniProt P59594); test: ELISA on coated antigen

COV2-2196 Fab (recombinant, wt sequence), sequence (VH): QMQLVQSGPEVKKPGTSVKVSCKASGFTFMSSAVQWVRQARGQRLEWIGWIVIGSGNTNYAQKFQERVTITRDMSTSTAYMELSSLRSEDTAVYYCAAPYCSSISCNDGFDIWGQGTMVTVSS
COV2-2196 Fab (recombinant, wt sequence), sequence (VL): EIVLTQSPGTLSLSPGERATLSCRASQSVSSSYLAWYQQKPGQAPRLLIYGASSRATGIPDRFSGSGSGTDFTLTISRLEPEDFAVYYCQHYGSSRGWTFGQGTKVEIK

Substance	EC50 [3] [ng/mL]	also measured
COV2-2196 Fab (recombinant, first two amino acids of the variable region mutated from QM to EV)	–	buried surface area of the interface [1]: 650 Å^2
COV2-2196 Fab (recombinant, wt sequence)	–	buried surface area of the interface [2]: 650 Å^2
rCR3022 (recombinant form of the cross-reactive SARS-CoV SRBD mAb CR3022) (antibody)	5.2	–
COV2-2094 (antibody)	11.7	–
